Assay results taken from publication PMC10786891, “Massively parallel profiling of RNA-targeting CRISPR-Cas13d”.
Where a chain is given by its changes, count along the chain named. In names and notes the source's numbering stands.

T1: EsCas13d, nuclease-dead (Eubacterium siraeum, UniProt B0MS50, R295A;H300A;R849A;H854A)
T1 sequence: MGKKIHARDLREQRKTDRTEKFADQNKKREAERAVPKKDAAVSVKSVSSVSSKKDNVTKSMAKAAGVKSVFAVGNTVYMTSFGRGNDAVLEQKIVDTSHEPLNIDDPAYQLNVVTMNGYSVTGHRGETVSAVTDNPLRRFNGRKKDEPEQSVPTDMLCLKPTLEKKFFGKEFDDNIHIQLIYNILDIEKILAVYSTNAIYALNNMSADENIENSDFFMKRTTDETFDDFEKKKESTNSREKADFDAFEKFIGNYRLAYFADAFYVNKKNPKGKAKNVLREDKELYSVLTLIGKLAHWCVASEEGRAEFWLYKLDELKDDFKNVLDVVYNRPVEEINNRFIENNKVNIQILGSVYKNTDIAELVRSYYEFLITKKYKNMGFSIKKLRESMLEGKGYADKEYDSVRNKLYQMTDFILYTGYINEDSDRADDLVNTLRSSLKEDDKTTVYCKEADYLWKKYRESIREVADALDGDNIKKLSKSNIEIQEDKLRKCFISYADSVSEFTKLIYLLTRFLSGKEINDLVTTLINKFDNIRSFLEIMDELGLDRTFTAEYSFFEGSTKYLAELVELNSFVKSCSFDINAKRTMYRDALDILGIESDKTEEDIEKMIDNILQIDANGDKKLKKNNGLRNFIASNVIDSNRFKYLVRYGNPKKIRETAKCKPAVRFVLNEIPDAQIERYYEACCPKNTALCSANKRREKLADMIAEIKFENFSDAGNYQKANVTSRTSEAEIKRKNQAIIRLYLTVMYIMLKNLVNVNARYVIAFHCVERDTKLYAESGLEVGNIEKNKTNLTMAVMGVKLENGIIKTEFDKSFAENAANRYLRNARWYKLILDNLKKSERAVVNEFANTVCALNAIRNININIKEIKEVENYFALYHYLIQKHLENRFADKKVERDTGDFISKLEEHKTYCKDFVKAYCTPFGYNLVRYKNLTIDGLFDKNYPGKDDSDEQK

B1: target 1 A20C,C22U (mixed)
RNA 1: CACCCGUGCAAAAAUGCAGGGGUCUAAAACUGAGCGGAUAACCUCUCUAUGG
RNA 2: GGGAAUGGAUCCACAUCUACGAAUUCGUAUCCUAGAGAGGUUAUCCGCUCACCGAGAUCGGAAGAGCACACGU
B2: non-target control (mixed)
RNA 1: B1 RNA 1
RNA 2: GGGAAUGGAUCCACAUCUACGAAUUCGUUAGCUAGAAGGGGAAGUUGGUUAUGGAGAUCGGAAGAGCACACGU
B3: target 1 A9C,U11C (mixed)
RNA 1: B1 RNA 1
RNA 2: B1 RNA 2 with U30C, C32A, U41C, A43C
B4: target 1 insG 3' of 7,insG 3' of 2 (mixed)
RNA 1: B1 RNA 1
RNA 2: GGGAAUGGAUCCACAUCUACGAAUUCGUACCAUAGAGAGGUUAUCGCGCUCGACCGAGAUCGGAAGAGCACACGU
B5: target 1 insA 3' of 13,insC 3' of 12 (mixed)
RNA 1: B1 RNA 1
RNA 2: GGGAAUGGAUCCACAUCUACGAAUUCGUACCAUAGAGAGAGCUUAUCCGCUCACCGAGAUCGGAAGAGCACACGU
B6: target 1 insC 3' of 9,insA 3' of 7 (mixed)
RNA 1: B1 RNA 1
RNA 2: B5 RNA 2 with A40G, G41U, C42U, U43A, U44C, A45U, U46C, C47A
B7: target 1 insG 3' of 11,insA 3' of 11 (mixed)
RNA 1: B1 RNA 1
RNA 2: B5 RNA 2 with A40G, G41U, C42G, U43A
B8: target 1 C6G,U19C (mixed)
RNA 1: B1 RNA 1
RNA 2: B1 RNA 2 with U30C, C32A, U33C, C46G
B9: target 2 MT 5'PFS CGG 3'PFS AGC (mixed)
RNA 1: CACCCGUGCAAAAUUGCAGGGGUCUAAAACCUUCUCCAAAUUGUUUCAUCCU
RNA 2: GGGAAUGGAUCCACAUCUACGAAUUCCGGAGGAUGAAACAAUUUGGAGAAGAGCAGAUCGGAAGAGCACACGU
B10: target 2 MT 5'PFS CGG 3'PFS AGG (mixed)
RNA 1: B9 RNA 1
RNA 2: B9 RNA 2 with C54G
B11: target 2 MT 5'PFS GGC 3'PFS UGC (mixed)
RNA 1: B9 RNA 1
RNA 2: B9 RNA 2 with C27G, G29C, A52U
B12: target 2 MT 5'PFS GUA 3'PFS AGG (mixed)
RNA 1: B9 RNA 1
RNA 2: B9 RNA 2 with C27G, G28U, G29A, C54G
B13: target 2 MT 5'PFS CGC 3'PFS UAU (mixed)
RNA 1: B9 RNA 1
RNA 2: B9 RNA 2 with G29C, A52U, G53A, C54U
B14: target 2 MT 5'PFS UGG 3'PFS CCU (mixed)
RNA 1: B9 RNA 1
RNA 2: B9 RNA 2 with C27U, A52C, G53C, C54U
B15: target 2 MT 5'PFS AGG 3'PFS UAC (mixed)
RNA 1: B9 RNA 1
RNA 2: B9 RNA 2 with C27A, A52U, G53A
B16: target 2 MT 5'PFS CAC 3'PFS UCC (mixed)
RNA 1: B9 RNA 1
RNA 2: B9 RNA 2 with G28A, G29C, A52U, G53C
B17: target 2 MT 5'PFS UAG 3'PFS UUU (mixed)
RNA 1: B9 RNA 1
RNA 2: B9 RNA 2 with C27U, G28A, A52U, G53U, C54U
B18: target 2 MT 5'PFS CGC 3'PFS UAC (mixed)
RNA 1: B9 RNA 1
RNA 2: B9 RNA 2 with G29C, A52U, G53A
B19: target 2 MT 5'PFS GUA 3'PFS AGU (mixed)
RNA 1: B9 RNA 1
RNA 2: B9 RNA 2 with C27G, G28U, G29A, C54U
B20: target 2 MT 5'PFS GCU 3'PFS CUC (mixed)
RNA 1: B9 RNA 1
RNA 2: B9 RNA 2 with C27G, G28C, G29U, A52C, G53U
B21: target 2 MT 5'PFS GUA 3'PFS AGC (mixed)
RNA 1: B9 RNA 1
RNA 2: B9 RNA 2 with C27G, G28U, G29A
B22: target 2 MT 5'PFS CGC 3'PFS UAA (mixed)
RNA 1: B9 RNA 1
RNA 2: B9 RNA 2 with G29C, A52U, G53A, C54A
B23: target 2 MT 5'PFS AGG 3'PFS AAU (mixed)
RNA 1: B9 RNA 1
RNA 2: B9 RNA 2 with C27A, G53A, C54U
B24: target 2 MT 5'PFS CUC 3'PFS ACU (mixed)
RNA 1: B9 RNA 1
RNA 2: B9 RNA 2 with G28U, G29C, G53C, C54U
B25: target 2 MT 5'PFS GUA 3'PFS AGA (mixed)
RNA 1: B9 RNA 1
RNA 2: B9 RNA 2 with C27G, G28U, G29A, C54A
B26: target 2 MT 5'PFS ACC 3'PFS CCG (mixed)
RNA 1: B9 RNA 1
RNA 2: B9 RNA 2 with C27A, G28C, G29C, A52C, G53C, C54G
B27: target 2 MT 5'PFS UAG 3'PFS UCG (mixed)
RNA 1: B9 RNA 1
RNA 2: B9 RNA 2 with C27U, G28A, A52U, G53C, C54G
B28: target 2 MT 5'PFS GCG 3'PFS UGU (mixed)
RNA 1: B9 RNA 1
RNA 2: B9 RNA 2 with C27G, G28C, A52U, C54U
B29: target 2 MT 5'PFS CAC 3'PFS UCU (mixed)
RNA 1: B9 RNA 1
RNA 2: B9 RNA 2 with G28A, G29C, A52U, G53C, C54U
B30: target 2 MT 5'PFS UAU 3'PFS GCA (mixed)
RNA 1: B9 RNA 1
RNA 2: B9 RNA 2 with C27U, G28A, G29U, A52G, G53C, C54A
B31: target 2 MT 5'PFS CUC 3'PFS ACA (mixed)
RNA 1: B9 RNA 1
RNA 2: B9 RNA 2 with G28U, G29C, G53C, C54A
B32: target 2 MT 5'PFS CGG 3'PFS AGA (mixed)
RNA 1: B9 RNA 1
RNA 2: B9 RNA 2 with C54A
B33: target 2 MT 5'PFS CAC 3'PFS UCA (mixed)
RNA 1: B9 RNA 1
RNA 2: B9 RNA 2 with G28A, G29C, A52U, G53C, C54A
B34: target 2 MT 5'PFS CAC 3'PFS UCG (mixed)
RNA 1: B9 RNA 1
RNA 2: B9 RNA 2 with G28A, G29C, A52U, G53C, C54G
B35: target 2 MT 5'PFS CUC 3'PFS ACG (mixed)
RNA 1: B9 RNA 1
RNA 2: B9 RNA 2 with G28U, G29C, G53C, C54G
B36: target 2 MT 5'PFS CUC 3'PFS ACC (mixed)
RNA 1: B9 RNA 1
RNA 2: B9 RNA 2 with G28U, G29C, G53C
B37: target 2 MT 5'PFS UGG 3'PFS CCA (mixed)
RNA 1: B9 RNA 1
RNA 2: B9 RNA 2 with C27U, A52C, G53C, C54A

Each binder was assayed against T1, EsCas13d, nuclease-dead (assay: crRNA (strand 1, pre-loaded); Mg2+; 40 mM Tris-HCl pH 7.5, 150 mM NaCl, 6 mM MgCl2, 1 mM DTT, 0.1% Tween-20, 0.2 mg/ml BSA; 25 C; 10 min per concentration, then washed). Settings: tags: His6-TwinStrep-SUMO cleaved; N-terminal SNAP kept (SNAP-Surface 488); label: 3' end held by stalled T7 RNA polymerase.
B1 was tested, and the Kd was 49 ± 6 nM. B2 gave a Kd of over 100 nM. With B3 the Kd was 20 ± 1.7 nM. B4 was tested, and the Kd was 6.9 ± 0.4 nM. With B5 the Kd was 6.3 ± 0.9 nM. B6 showed a Kd of 10.4 ± 0.4 nM. In the case of B7, the Kd is reported as 15.2 ± 0.8 nM. B8 gave a Kd of 29.8 ± 2.8 nM. In the case of B9, the Kd is reported as 4.7 ± 0.9 nM. In the case of B10, the Kd is reported as 4.5 ± 0.5 nM. Work on B11 yielded a Kd of 13.2 ± 1.3 nM. B12 showed a Kd of 8.6 ± 0.6 nM. B13 gave a Kd of 3.7 ± 0.4 nM. Work on B14 yielded a Kd of 68 ± 33 nM. Binder B15 has a Kd of 7.3 ± 1.2 nM. In the case of B16, the Kd is reported as 4.9 ± 0.7 nM. B17 showed a Kd of 6.5 ± 0.7 nM. B18 gave a Kd of 6.3 ± 0.8 nM. B19 showed a Kd of 12.4 ± 1.4 nM. B20 gave a Kd of 24 ± 8 nM. Binder B21 has a Kd of 6.4 ± 0.6 nM. For B22, the Kd was 3.9 ± 0.6 nM. Binder B23 has a Kd of 4.7 ± 0.9 nM. B24 gave a Kd of 2.14 ± 0.28 nM. For B25, the Kd was 6.5 ± 0.8 nM. B26 gave a Kd of 12 ± 5 nM. In the case of B27, the Kd is reported as 4.1 ± 0.5 nM. B28 showed a Kd of 17.4 ± 2.1 nM. With B29 the Kd was 4.7 ± 0.6 nM. In the case of B30, the Kd is reported as about 70 nM. B31 gave a Kd of 3.1 ± 1.4 nM. B32 gave a Kd of 4.1 ± 0.7 nM. Work on B33 yielded a Kd of 4.1 ± 0.6 nM. B34 gave a Kd of 3.9 ± 0.8 nM. B35 gave a Kd of 1.68 ± 0.18 nM. B36 was tested, and the Kd was 2.3 ± 0.4 nM. B37 was tested, and the Kd was 15.3 ± 3.1 nM.
